Measurements: publication PMC10549240 (RSC Chemical Biology, 2023)
One block for each binder: values may come before it. *: point of attachment. Biotin = O=C1N[C@H]2[C@H](CS[C@H]2CCCCC(=O)*)N1; AEEA = NCCOCCOCC(=O)O

B1: Bio-PepK-StA (peptide)
peptide: {Biotin-AEEA}-KIAALKEKIAALKEKIAALKE-NH2
SMILES: CC[C@H](C)[C@H](NC(=O)[C@H](CCCCN)NC(=O)COCCOCCNC(=O)CCCC[C@@H]1SC[C@@H]2NC(=O)N[C@@H]21)C(=O)N[C@@H](C)C(=O)N[C@@H](C)C(=O)N[C@@H](CC(C)C)C(=O)N[C@@H](CCCCN)C(=O)N[C@@H](CCC(=O)O)C(=O)N[C@@H](CCCCN)C(=O)N[C@H](C(=O)N[C@@H](C)C(=O)N[C@@H](C)C(=O)N[C@@H](CC(C)C)C(=O)N[C@@H](CCCCN)C(=O)N[C@@H](CCC(=O)O)C(=O)N[C@@H](CCCCN)C(=O)N[C@H](C(=O)N[C@@H](C)C(=O)N[C@@H](C)C(=O)N[C@@H](CC(C)C)C(=O)N[C@@H](CCCCN)C(=O)N[C@@H](CCC(=O)O)C(N)=O)[C@@H](C)CC)[C@@H](C)CC

How the values were obtained:
[1] = target: Fluo-PepE (fluorescein (5(6)-carboxyfluorescein)-Aoa (8-amino-3,6-dioxa-octanoic acid) on the N-terminus; C-terminal amide); assay: fluorescence polarisation
[2] = target: B1; assay: fluorescence polarisation
[3] = target: activated PepE-Bio (N-terminal acetyl; C-terminal Aoa-Aoa-Lys(biotin)-NH2; glutamate side chains activated with EDC/NHS (NHS esters)); assay: cross-linking

Binder: B1
binding result [1]: binds

Binder: {fluorescein-AEEA}-EIAALEREIAALEREIAAL-NH2 [PepE(-2C)]
binding result [2]: binds

Binder: {fluorescein-AEEA}-EIAALEREIAALEREI-NH2 [PepE(-5C)]
fold drop in affinity against full-length PepE [2]: ~40 fold

Binder: {fluorescein-AEEA}-EIAALEREIAALEREIA-NH2 [PepE(-4C)]
fold drop in affinity against full-length PepE [2]: ~40 fold

Binder: {fluorescein-AEEA}-EIAALEREIAALEREIAA-NH2 [PepE(-3C)]
fold drop in affinity against full-length PepE [2]: ~40 fold

Now from value to binder:

binding result [2]: binds
Binder: {fluorescein-AEEA}-EIAALEREIAALEREIAALE-NH2 [PepE(-1C)]

binding result [3]: binds
B2: Bio-PepK (peptide)
peptide: {Biotin-AEEA}-KIAALKEKIAALKEKIAALKE-NH2
SMILES: CC[C@H](C)[C@H](NC(=O)[C@H](CCCCN)NC(=O)COCCOCCNC(=O)CCCC[C@@H]1SC[C@@H]2NC(=O)N[C@@H]21)C(=O)N[C@@H](C)C(=O)N[C@@H](C)C(=O)N[C@@H](CC(C)C)C(=O)N[C@@H](CCCCN)C(=O)N[C@@H](CCC(=O)O)C(=O)N[C@@H](CCCCN)C(=O)N[C@H](C(=O)N[C@@H](C)C(=O)N[C@@H](C)C(=O)N[C@@H](CC(C)C)C(=O)N[C@@H](CCCCN)C(=O)N[C@@H](CCC(=O)O)C(=O)N[C@@H](CCCCN)C(=O)N[C@H](C(=O)N[C@@H](C)C(=O)N[C@@H](C)C(=O)N[C@@H](CC(C)C)C(=O)N[C@@H](CCCCN)C(=O)N[C@@H](CCC(=O)O)C(N)=O)[C@@H](C)CC)[C@@H](C)CC
